According to patent US20180057596A1 (AstraZeneca / MedImmune, published 2018):
Substitutions are numbered along the chain they refer to.

T1: human IL-4Rα on TF-1 cells (human, UniProt P24394 26-825)
T1 sequence (looked up): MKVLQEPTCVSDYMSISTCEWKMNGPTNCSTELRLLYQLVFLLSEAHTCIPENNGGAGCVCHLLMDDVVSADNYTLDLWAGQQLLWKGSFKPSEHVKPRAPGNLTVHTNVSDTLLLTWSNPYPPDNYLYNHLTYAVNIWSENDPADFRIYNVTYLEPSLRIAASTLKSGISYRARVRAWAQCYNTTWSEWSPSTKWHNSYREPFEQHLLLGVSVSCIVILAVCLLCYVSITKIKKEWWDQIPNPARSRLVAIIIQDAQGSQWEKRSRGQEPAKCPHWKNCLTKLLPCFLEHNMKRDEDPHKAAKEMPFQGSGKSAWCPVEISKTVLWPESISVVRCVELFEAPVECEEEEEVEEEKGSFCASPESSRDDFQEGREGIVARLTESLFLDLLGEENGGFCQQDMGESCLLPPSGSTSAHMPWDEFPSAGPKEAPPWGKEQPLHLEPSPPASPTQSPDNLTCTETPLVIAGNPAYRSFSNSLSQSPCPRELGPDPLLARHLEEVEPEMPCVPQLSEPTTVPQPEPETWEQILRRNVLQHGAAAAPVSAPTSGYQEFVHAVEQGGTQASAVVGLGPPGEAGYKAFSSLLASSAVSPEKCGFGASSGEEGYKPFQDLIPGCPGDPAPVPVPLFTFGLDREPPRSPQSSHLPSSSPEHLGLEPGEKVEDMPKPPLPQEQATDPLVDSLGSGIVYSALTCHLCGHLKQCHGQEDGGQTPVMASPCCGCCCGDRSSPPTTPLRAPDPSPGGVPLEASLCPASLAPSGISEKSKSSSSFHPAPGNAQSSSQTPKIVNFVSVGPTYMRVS

T2: human IL4Rα/Fc (R and D Systems 604-4R) (human, UniProt P24394 26-231, limits assumed, biotin labelled in the assay of Example 5)
T2 construct: bought protein; also called IL-4Rα/Fc (R&D systems Cat. No. 604-4R-050); not shown: Fc part of the bought fusion
T2 sequence (looked up): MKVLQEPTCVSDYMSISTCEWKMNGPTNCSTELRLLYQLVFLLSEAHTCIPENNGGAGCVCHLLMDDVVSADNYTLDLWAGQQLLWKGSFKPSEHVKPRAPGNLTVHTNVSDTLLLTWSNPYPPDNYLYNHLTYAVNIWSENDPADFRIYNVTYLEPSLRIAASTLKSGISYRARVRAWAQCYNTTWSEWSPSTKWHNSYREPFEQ

B1: Antibody 8 IgG (antibody, V domains shown)
VH: QVQLVQSGAEVKKPGASVKVSCKASGYAFTSYYMHWARQAPGQGLEWMGIINPSGGSTSYAQKFQGRVTMTRDTSTSTVYMELSSLRSEDTAVYYCARGKWWWQYWGKGTLVTVSS
VL: QSVLTQPPSVSAAPGQKVTISCSGGSSNIGNSYVSWYQQLPGTAPKLLIYDNNKRPSGIPDRFSGSKSGTSATLAITGLQTGDEADYYCGTWDTSTTYHPIFGTGTKLTVL
B2: Antibody 31 IgG (antibody, V domains shown)
VH: B1 VH with W101Y, W103M, Q104Y, Y105D
VL: B1 VL with N28S, D93A, T96P, T97V, Y98W, H99E, P100W, I101P
B3: Antibody 14 IgG (antibody, V domains shown)
VH: B1 VH with W103L, Q104Y, Y105N
VL: B1 VL with T96P, T97P, Y98T, H99K, I101L
B4: Antibody 42 IgG (antibody, V domains shown)
VH: B1 VH with M48V, E89G, W101Y, W103M, Q104Y, Y105D
VL: B1 VL with S2A, Q39R, T43A, T97G, Y98W, H99E, P100W, I101P
B5: Antibody 11 IgG (antibody, V domains shown)
VH: B1 VH with W103F, Q104Y, Y105D
VL: B1 VL with T96P, T97S, Y98M, H99I, I101L
B6: Antibody 16 IgG (antibody, V domains shown)
VH: B1 VH with W103L, Q104Y, Y105N
VL: B1 VL
B7: Antibody 24 IgG (antibody, V domains shown)
VH: B1 VH with S54R, W101Y, W103M, Q104Y, Y105D
VL: B1 VL with Y88F, T97V, Y98W, H99E, P100W, I101P
B8: Antibody 7 IgG (antibody, V domains shown)
VH: B1 VH
VL: B1 VL with T96S, T97P, Y98P, H99Q
B9: Antibody 19 IgG (antibody, V domains shown)
VH: B1 VH with Y105H
VL: B1 VL
B10: Antibody 10 IgG (antibody, V domains shown)
VH: B1 VH with W103L, Q104Y, Y105D
VL: B1 VL with T97V, Y98L, H99T
B11: Antibody 4 IgG (antibody, V domains shown)
VH: B1 VH with W103L, Q104Y, Y105N
VL: B1 VL with T96S, T97P, Y98P, H99Q
B12: Antibody 15 IgG (antibody, V domains shown)
VH: B1 VH with W103L, Q104Y, Y105N
VL: B1 VL with T97H, Y98R, I101L
B13: Antibody 21 IgG (antibody, V domains shown)
VH: B1 VH with T58A, W101Y, W103M, Q104Y, Y105D
VL: B1 VL with D86V, Y88F, T97V, Y98W, H99E, P100W, I101P
B14: Antibody 12 IgG (antibody, V domains shown)
VH: B1 VH with W103F, Q104Y, Y105D
VL: B1 VL with Y98M, H99Y, I101L
B15: Antibody 25 IgG (antibody, V domains shown)
VH: B1 VH with S54R, T58A, T69S, W101Y, W103M, Q104Y, Y105D
VL: B1 VL with S71T, D93V, T97V, Y98W, H99E, P100W, I101P
B16: Antibody 13 IgG (antibody, V domains shown)
VH: B1 VH with W103L, Q104Y, Y105D
VL: B1 VL with Y98L, H99Q, I101L
B17: Antibody 38 scFv (scFv, V domains shown)
VH: B1 VH with T58A, W101Y, W103M, Q104Y, Y105D
VL: B1 VL with Y88F, T97V, Y98W, H99E, P100W, I101P
notes: tested as purified scFv
B18: Antibody 37 scFv (scFv, V domains shown)
VH: B1 VH with S54R, T69A, S88P, W101Y, W103M, Q104Y, Y105D
VL: B1 VL with S26G, N28S, I59V, T96P, T97V, Y98W, H99E, P100W, I101P
notes: tested as purified scFv
B19: Antibody 35 scFv (scFv, V domains shown)
VH: B1 VH with W101Y, W103M, Q104Y, Y105D
VL: B1 VL with T96P, T97V, Y98W, H99E, P100W, I101P
notes: tested as purified scFv
B20: Antibody 37GL scFv (scFv, V domains shown)
VH: B1 VH with A37V, S54R, W101Y, W103M, Q104Y, Y105D
VL: B1 VL with S26G, N28S, A75G, T96P, T97V, Y98W, H99E, P100W, I101P
notes: tested as purified scFv; also called NCIMB 41600
B21: Antibody 31 scFv (scFv, V domains shown)
VH: B1 VH with W101Y, W103M, Q104Y, Y105D
VL: B1 VL with N28S, D93A, T96P, T97V, Y98W, H99E, P100W, I101P
notes: tested as purified scFv
B22: Antibody 42 scFv (scFv, V domains shown)
VH: B1 VH with M48V, E89G, W101Y, W103M, Q104Y, Y105D
VL: B1 VL with S2A, Q39R, T43A, T97G, Y98W, H99E, P100W, I101P
notes: tested as purified scFv
B23: Antibody 33 scFv (scFv, V domains shown)
VH: B1 VH with V11E, W101Y, W103M, Q104Y, Y105D
VL: B1 VL with V3A, Y88F, T97V, Y98W, H99E, P100W, I101P
notes: tested as purified scFv
B24: Antibody 30 scFv (scFv, V domains shown)
VH: B1 VH with W101Y, W103M, Q104Y, Y105D
VL: B1 VL with Q39R, T43A, T97V, Y98W, H99E, P100W, I101P
notes: tested as purified scFv
B25: Antibody 41 scFv (scFv, V domains shown)
VH: B1 VH with K12R, S88P, W101Y, W103M, Q104Y, Y105D, S116G
VL: B1 VL with S27T, Q39R, S57P, T97V, Y98W, H99E, P100W, I101P
notes: tested as purified scFv
B26: Antibody 28 scFv (scFv, V domains shown)
VH: B1 VH with W101Y, W103M, Q104Y, Y105D, K108N
VL: LPVLTQPPSVSAAPGQKVTISCSGGSSSIGNSYVSWYQQLPGAAPKLLIYDNNKRPSGIPDRFSGFRSGTSATLAITGLQTGDEADYYCGTWDTSPVWEWPFGTGTKLTVL
notes: tested as purified scFv
B27: Antibody 27 scFv (scFv, V domains shown)
VH: B1 VH with K12R, S88P, W101Y, W103M, Q104Y, Y105D, L111Q
VL: B1 VL with S9L, Q39R, T97V, Y98W, H99E, P100W, I101P
notes: tested as purified scFv
B28: Antibody 40 scFv (scFv, V domains shown)
VH: B1 VH with W101Y, W103M, Q104Y, Y105D
VL: B1 VL with T94S, T97V, Y98W, H99E, P100W, I101P
notes: tested as purified scFv

What was measured:
[1] = target: T1, human IL-4Rα on TF-1 cells; assay: cell-based or functional assay
[2] = target: T2, human IL4Rα/Fc (R and D Systems 604-4R); assay: HTRF receptor-ligand assay, purified scFv against biotinylated human IL4
[3] = target: T3, cynomolgus IL4Rα/Fc HIS6 (HEK expressed) (cynomolgus monkey); assay: HTRF receptor-ligand assay, purified scFv against biotinylated cynomolgus IL4
T3 construct: also called Cyno IL4R; cynomolgus IL-4Rα HIS Fc (in house HEK-EBNA derived); not shown: HIS6 tag
T3 sequence (chain, as listed by the source): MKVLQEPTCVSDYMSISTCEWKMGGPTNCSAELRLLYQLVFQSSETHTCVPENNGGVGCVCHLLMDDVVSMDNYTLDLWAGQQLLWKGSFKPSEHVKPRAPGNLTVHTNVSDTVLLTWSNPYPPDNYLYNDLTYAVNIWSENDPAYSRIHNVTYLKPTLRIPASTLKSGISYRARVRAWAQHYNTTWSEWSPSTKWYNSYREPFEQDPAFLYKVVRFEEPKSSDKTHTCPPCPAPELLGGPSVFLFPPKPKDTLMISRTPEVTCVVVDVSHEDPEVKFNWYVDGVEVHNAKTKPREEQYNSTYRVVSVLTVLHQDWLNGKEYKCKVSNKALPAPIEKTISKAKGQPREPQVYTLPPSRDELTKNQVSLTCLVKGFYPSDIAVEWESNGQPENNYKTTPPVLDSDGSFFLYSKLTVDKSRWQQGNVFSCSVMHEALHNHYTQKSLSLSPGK

Binder | IC50 (pM), IL-4 induced TF-1 cell proliferation [1] [pM] | IC50 (pM), IL-13 induced TF-1 cell proliferation [1] [pM] | Ki [2] [nM] | Ki [3] [nM]
B1 | 7.9 | 22.4 |  | 
B2 | 20.2 | 44.2 |  | 
B3 | 3.8 | 27.2 |  | 
B4 | 20.2 | 42.7 |  | 
B5 | 18.8 | 32.7 |  | 
B6 | 6.2 | 19.5 |  | 
B7 | 12.6 | 30.2 |  | 
B8 | 12.3 | 42.7 |  | 
B9 | 7.6 | 22.4 |  | 
B10 | 10.1 | 25.4 |  | 
B11 | 20.9 | 58.1 |  | 
B12 | 2.8 | 17.8 |  | 
B13 | 19.7 | 34.7 |  | 
B14 | 18.2 | 40.7 |  | 
B15 | 9.8 | 23.2 |  | 
B16 | 15.7 | 24.6 |  | 
B17 |  |  | 0.066 | 2.7
B18 |  |  | 0.04 | 0.8
B19 |  |  | 0.071 | 2.6
B20 |  |  | 0.061 | 0.7
B21 |  |  | 0.044 | 2.2
B22 |  |  | 0.027 | 2.5
B23 |  |  | 0.092 | 1.4
B24 |  |  | 0.069 | 3.6
B25 |  |  | 0.053 | 2.7
B26 |  |  | 0.094 | 1.8
B27 |  |  | 0.063 | 2.8
B28 |  |  | 0.031 | 6.5
